Measured values as given in a protein production outcome set (Wang et al. 2014).

assay: label from the status in PepcDB records

| Sequence | protein production |
| --- | --- |
| MWPSCMARFPSDGQPGYRFVPSPGSGAGEEEMRPLVSVVCACFNISKYLDEAIASIYAQGYPNLELIVVDDGSTDDTYERLAMLRERHGFQLYRQANRGVSDALNHGLRHARGEFVMTPDLDDILLPGALDTRVDYLLAHPEVGCVGGFNICIDSAGNEVARDGFSEGCVERWGFDAALAETLVVMPLTALYRMEAMKRADFFDPSIRVQDFQITLRIAAQGYEIHRLPAYMGRYRRHGSGLSGRYKLNYEADMQAIEPYRAHPNYRRARQLILNKALKKAVVQDGRYAWQLFRSVPLRAWDRVTLKRFWRFLRYLPVLGLKGGTGVEGR | failed |
| MWSSREIEDLGLTFAIAIDKGKETNTEKELKEEGGSYPKKDNITLTYQFVNEKAAGAGTSGGGGSGQGAQKAYINISETGDSLQQIGSEVALRRDREVFSPHLKVVVMSEDVLHTFPIDEMLDQFFRDNEIRLSCLVLSAKGEARDALQLKENGEIPAFRLIGLGENEHKVSRILPPMTLAKLIGKLHSGSSFLLQNVVAANGAVKYSGAAVINGKSKKMIGTLNEYETEGITWIRGEGKGGVVKSHDKKSQQTLAYDINKIKSRIQPIVKGKDISFHVDIESEGDLVENWNTKEALDTQFIDRLETTIENEVKKIVGQVLKKIQHDYKADVAGFDESFRLTYPHLWKRVKNNWDDTFSKADITYSVNVTITHFGTVKTQLEHHHHHH | not failed |
| MWSWDVECDTCAICRVQVMDACLRCQAENKQEDCVVVWGECNHSFHNCCMSLWVKQNNRCPLCQQDWVVQRIGK | not failed |
| MWTTRLVRSGLAALCAAVLVSSGCARFNDAQSQPFTTEPELRPQPSSTPPPPPPLPPVPFPKECPAPGVMQGCLESTSGLIMGIDSKTALVAERITGAVEEISISAEPKVKTVIPVDPAGDGGLMDIVLSPTYSQDRLMYAYISTPTDNRVVRVADGDIPKDILTGIPKGAAGNTGALIFTSPTTLVVMTGDAGDPALAADPQSLAGKVLRIEQPTTIDQTPPTTALSGIGSGGGLCIDPVDGSLYVADRTPTADRLQRITKNSEVSTVWTWPDKPGVAGCAAMDGTVLVNLINTKLTVAVRLAPSTGAVTGEPDVVRKDTHAHAWALRMSPDGNVWGATVNKTAGDAEKLDDVVFPLFPQGGGFPRNNDDKT | failed |
| MWTVLIINLLIAIVLTYFGLKERNENFSWFTASGAFIVFGLILLISTIPVFNDFNESSLLMFIGGILSILGIITLIIGLVTRAVKIVSLRDVAIAMEIAAVCVIYLIHNLDLSFINLFVPELSVIIGFLLFVFSRKKN | failed |
| MWWPGTVIGVGAGFAVASIPGALLGALLGQAIDRRLRLQGWEDMRERLGGRPALRDDELLFVMLGRLAKCDGRVAEQHIQQARQEMVRLDLAEAARLRAINAFNRGKAGKDRLGGHLRRISQQPHAAEGTLRACWRMVWADGKMGNKERELLLDWGQKLGMSRRQVQAMSLEYEPRKATGAESVPMTYAAALRLLAVDADTDTDKVKQAYRRLVSRHHPDKLAGTGASEAQVREATARTRELHQAYAMIRKRRGL | failed |
| MYADYPYYADHYGGDIPEREYPSAERRAEAYIRKLTYVRGNIFAVENTAVKDAVCAVADVYYSCKKKQEAGTVKSESNDGYSVSYAVEQADGQTMEELIRKKAYEAASTYLLPTGWLSRKVGCCHADECDDYNL | failed |
| MYALISLEEDPSLLRYGYLSQDNVGDVRREVSKLCGELRPHALALVTSFGIPDSFLSPIAFNWVEANTWSSV | failed |
| MYAVPILNVYDFEVKKDKETSYKSATEDYVNKTMGVEQGVLGLFAATDERDKTTSYIVEIYNDYLAFSNHTKNQASKDFKAVIPQIAEGNLNSAEIDVQIAKDKKIEQNDNTFAVYTVIDVKPENDKEFAEIIKNIVETTFNEEGTLLVYLGTDRRNFNKWCLFEVYKDIDSYLNHRSAKYFKDYITQTKDMIAGKKRAELQVLKIENKGGLDYKKLY | not failed |
| MYDSRGVALHSELIHRWNHAFSILSIVAFPKKRLLFAGSQDSKILVFDLPTYNLIHTIRLGESQEETHTRSSVLCLTGSEDENFLFSGGADSLVRIWSIGEKTIRDDFLPVTEIATVYSVTDIGDIFSLAYLDSLETIVFGCQNASLLYVENLIQKIEKKSSDGVENINKLPHRRYDKFFDSLGPTGYSSNSLSQTSLTSLQENCGAAIIEVPSENIIKYAHYGFIYSINKLCPRFNQLLEKSSRTSGAEHIISSAGDGISKLWEFSKDKGQNTVKISLINDKIDNEDSVISQTIEFPFLYCGLTDGIIKIWDLNTQQIISTLKTKHESDVISISVYMDHVFAIDESGITHFYQNQVNHWNPQQGKILSSEIFSKSNAGSVSLLTGGSDGSLTLWDITSLLSAVPLSSNSPINASSTLQTTNLWAAYQSASLNNEEMLNTLRELISFQTVSQSKDTTNTLSLRRCAIYLQQLFLKFGATNSQLFPLPDGGNPVVFAYFQGNGKVSQVKGAKKKRILWYGHYDVISSGNTFNWNTDPFTLTCENGYLKGRGVSDNKGPLVSAIHSVAYLFQQGELVNDVVFLVEGSEEIGSASLKQVCEKYHDIIGKDIDWILLSNSTWVDQEHPCLNYGLRGVINAQIKVWSDKPDGHSGLNGGVYDEPMVNLVKIVSKLQNEQNEIMIPNFYSPLKDLTEEEYQRFQKITELANIDENTTVQDLITNWTKPSLSMTTVKFSGPGNITVIPKSVTMGISIRLVPEQSVEQVKRDLKAYLEESFKQLKSQNHLEIKVLNEAEGWLGDPTNHAYQILKDEITTAWDVEPLLVREGGSISCLRMLERIFDAPAVQIPCGQSTDNGHLANENLRIKNWSNLTEILSKVFNRL | failed |
| MYDWFSEMRKKDPVYYDGNIWQVFSYRYTKEVLNNFSKFSSDLTGYHERLEDLRNGKIRFDIPTRYTMLTSDPPLHDELRSMSADIFSPQKLQTLETFIRETTRSLLDSIDPREDDIVKKLAVPLPIIVISKILGLPIEDKEKFKEWSDLVAFRLGKPGEIFELGKKYLELIGYVKDHLNSGTEVVSRVVNSNLSDIEKLGYIILLLIAGNETTTNLISNSVIDFTRFNLWQRIREENLYLKAIEEALRYSPPVMRTVRKTKERVKLGDQTIEEGEYVRVWIASANRDEEVFHDGEKFIPDRNPNPHLSFGSGIHLCLGAPLARLEARIAIEEFSKRFRHIEILDTEKVPNEVLNGYKRLVVRLKSNE | not failed |
| MYEAHFGLKQLPFTLTPNTSLFHGLSPHYEAIHTVLSAISMGEGIIKVTGEVGTGKTLVCRMLINELPSNVELLYLPNPVMNGHELRQALAKELWLDQSGDDIALIDRIHEKIIDLHAEGKLVVVFIDEAQALSDEALETLRLFGNLETDYKKLLQIVLFGQPELDERLQQHNLRQLRQRITFSALLRALNMNETVAYIRYRIAESGCENNPFSLVQMKAIWKATNGIPRLINQVCHKSLLIAFSEQVNNVPSKAVFNAIIDTADTVKPKHYFPTFWGWRVSLEHHHHHH | not failed |
| MYEEWKIVKREAPILGNDQLIENIWKMKREDSPYDIISLHKVNLIGGGNDAVLILPGTWSSGEQLVTISWNGVHYTIPDYRKSIVLYLARNGFNVYTIDYRTHYVPPFLKDRQLSFTANWGWSTWISDIKEVVSFIKRDSGQERIYLAGESFGGIAALNYSSLYWKNDIKGLILLDGGPTKHGIRPKFYTPEVNSIEEMEAKGIYVIPSRGGPNNPIWSYALANPDMPSPDPKYKSISDFLMDSLYVTGSANPYDYPYSKKEDMFPILASFDPYWPYRLSLERDLKFDYEGILVPTIAFVSERFGIQIFDSKILPSNSEIILLKGYGHLDVYTGENSEKDVNSVVLKWLSQQR | not failed |
| MYESANVSDDADRTAFRRAEKKYKLYYEQDSKFSRKKKLPKPIDLSELLDFNLISQNFNNDGVLPDGIRVSKVDSSPVFCIDNRPGFYFIPDALSLKEQCKWIKESLTSFPQPPNRTNHNAIYGPIDDLFDSAKENKVLVQDDLTNNKWKFYEEVDIEKATRSSCKSVSASVLLRKLRWSTLGLQFDWSKRNYDVSLPHNNIPDALCQLAKTHAAIAMPDGEEFRPEGAIVNYFGIGDTLGGHLDDMEADWSKPIVSMSLGCKAIFLLGGKSKDDPPHAMYLRSGDVVLMAGEARECFHGNLLHFQLDGIPRIFTGEENADIGALESELSHESGHFFAEYIKTSRININIRQVF | failed |
| MYEVELKGYANDEIFEKVRETFEFMRKEIHEDIYYQHPCRDFSKTDEALRIRIKRFNGHNEVFLTYKGPKIDEKSKTRLEIEVEIQEDVDKYFELLDRLGFKEVLKVVKTREKYYVEKGVTITLDEVEGLGKFIEIETLVKEKDEIPEAVEKLEKILRELGVEKFERRSYLELLLEKRTELNI | not failed |
| MYFFVPTANSKINQMIFYLSSMNLDMIKEYILSFGIWAPITSFLLMVLQSVIAPIPAFLITLSNAAIFGWVKGAILSWSSAMAGAALCFYIARGLGRDAVEKLTSKFALKDIDGFFEKYGKHTILIARLLPFISFDLVSYAAGLTSMNFWSFFIATGIGQLPATIVYSYVGGMLTGGAQLLMSGLLILFALSIAIYVGKKVWNEKRGKNDK | failed |
| MYFLVTTLGVGFYLMKRMEKSEEDYLVAKRGLGAVPVGVTLALTVLGTPHILGVMESAYDIGLPAVWFSFAHAIMLAIVCLFTGRWARKLKVESVPEFLDVIFSNYWLRLMVGAVIAGAIFGICTLETQGLGVFVSILTGTSIEVGIVIGALIGILYVVLSGMKEVAWLNVLNAVILYIGIIAATFVLGSGLQNGWEGVNEFYISNDLAGKLNIFGSWEVFVGFALVNVLATVFFQGISQQGLHAALAAKSPDVLRKAMLIAVPVNGSFAVFAAVMGMAARATPEFAELGAKTATPAMIVSVLPTWASALLLATCLVAVLSSYAITLLAPTTIFVNDIYKAVLKPNASHEELLRLSRILTVLLAVAALIPAVSLPPILAAMMWLFSWLVPVFWFVIFGLFWKRSAPAAIITCLLVWVTINAWTMTPLPEVLGAPGWLHQVYLALIVTLVIGSLLNAVLPGKPGLFREKALAVRG | failed |
| MYGISVFLGEEITNDTIIYIKKMKALGFDGIFTSLHIPEDDTSLYRQRLTDLGAIAKAEKMKIMVDISGEALKRAGFSFDELEPLIELGVTGLRMDYGITIEQMAHASHKIDIGLNASTITLEEVAELKAHQADFSRLEAWHNYYPRPETGIGTTFFNEKNRWLKELGLQVFTFVPGDGQTRGPIFAGLPTLEKHRGQNPFAAAVGLMADPYVDAVYIGDPTISERTMAQFGYYHQTNQFLLEVAPSESRYLKRILGTHTNRLDAARDVLRSELSRTSEMFRKDEIATIESEQTEARPVGTVTIDNEKYGRYMGEIQVTLVDLPKDEKVNTITRIIEKDQTILPLIKAGNQFTLVTEGTIENEFRKLNN | not failed |
| MYGRKGYQLIKDFATGEKGQLKPFNSKLFDETIEECDQNHHLIQSLIRKMQQEGLDVQNNRNADHYGALIHHLALIRNKRCLMAYVYNRAEIVRDLAWRVGLELLDLPSEIQEKLTTLEKEYFKNHSVALKSYMGKVGIELNVDMVPPKDPYIKVRILDDIDEGIVLSDKTTNFARHSMHFLKRTDAEPYIARGQMEELTG | failed |
| MYIEMAQQQQQSGSDNSMAPVWIVILLFITAYFVWALAHQYIVSFVFTINIWQARLVNLFLNNQLLANQIYLMQTLDPNTVNWDQMVTVMRAVGDYMRYPVICILVVLAFVLYNSNVTLKYRKTYDMKSLRAQEQFNWPAIMPIVKEDLVSQDVNKGPWAMALTPMEFARKYNLLRKDDALLDNPVPGEEMTAGIRRGDAKRVFTMQLGPYWDGFERCSPQAYALSAVFMARMNRDRDAANNILKVLDKTFVDGKPDFSVARPVMKKYQNSELVQEVVAKHAYVLTVIASLLEAAREDGVVPSSEFLWLKPVDRRLWYMLNCVGRQTPYSEVAGPFAHWKAEKEMGRRSLVPMIDEAIRALEIAVKEVRLTPRQMEELEP | failed |
